Results: US20070082369A1

Key:
[1] = biological target: E. coli-expressed recombinant Der f 1 protein PDerf1303c (Dermatophagoides farinae) (UniProt P16311); experiment: sandwich ELISA, capture MAb 6A8, detection biotinylated MAb 4C1; 25 ng protein per well
[2] = biological target: Heska native Derf1 (Dermatophagoides farinae) (UniProt P16311); experiment: as above
[3] = biological target: Pichia-expressed recombinant Der f 1 protein PDerf1303b (Dermatophagoides farinae) (UniProt P16311); experiment: as above
[4] = biological target: E. coli-expressed recombinant Der f 1 protein PDerf1303c (Dermatophagoides farinae) (UniProt P16311); experiment: sandwich ELISA, capture MAb 6A8, detection biotinylated MAb 4C1; 50 ng protein per well
[5] = biological target: Heska native Derf1 (Dermatophagoides farinae) (UniProt P16311); experiment: as above
[6] = biological target: Pichia-expressed recombinant Der f 1 protein PDerf1303b (Dermatophagoides farinae) (UniProt P16311); experiment: as above
[7] = biological target: E. coli-expressed recombinant Der f 1 protein PDerf1303c (Dermatophagoides farinae) (UniProt P16311); experiment: sandwich ELISA, capture MAb 6A8, detection biotinylated MAb 4C1; 1.5 ng protein per well
[8] = biological target: Heska native Derf1 (Dermatophagoides farinae) (UniProt P16311); experiment: as above
[9] = biological target: Pichia-expressed recombinant Der f 1 protein PDerf1303b (Dermatophagoides farinae) (UniProt P16311); experiment: as above
[10] = biological target: E. coli-expressed recombinant Der f 1 protein PDerf1303c (Dermatophagoides farinae) (UniProt P16311); experiment: sandwich ELISA, capture MAb 6A8, detection biotinylated MAb 4C1; 3.1 ng protein per well
[11] = biological target: Heska native Derf1 (Dermatophagoides farinae) (UniProt P16311); experiment: as above
[12] = biological target: Pichia-expressed recombinant Der f 1 protein PDerf1303b (Dermatophagoides farinae) (UniProt P16311); experiment: as above
[13] = biological target: E. coli-expressed recombinant Der f 1 protein PDerf1303c (Dermatophagoides farinae) (UniProt P16311); experiment: sandwich ELISA, capture MAb 6A8, detection biotinylated MAb 4C1; 0.75 ng protein per well
[14] = biological target: Heska native Derf1 (Dermatophagoides farinae) (UniProt P16311); experiment: as above
[15] = biological target: Pichia-expressed recombinant Der f 1 protein PDerf1303b (Dermatophagoides farinae) (UniProt P16311); experiment: as above
[16] = biological target: E. coli-expressed recombinant Der f 1 protein PDerf1303c (Dermatophagoides farinae) (UniProt P16311); experiment: sandwich ELISA, capture MAb 6A8, detection biotinylated MAb 4C1; 6.25 ng protein per well
[17] = biological target: Heska native Derf1 (Dermatophagoides farinae) (UniProt P16311); experiment: as above
[18] = biological target: Pichia-expressed recombinant Der f 1 protein PDerf1303b (Dermatophagoides farinae) (UniProt P16311); experiment: as above
[19] = biological target: E. coli-expressed recombinant Der f 1 protein PDerf1303c (Dermatophagoides farinae) (UniProt P16311); experiment: sandwich ELISA, capture MAb 6A8, detection biotinylated MAb 4C1; 2.5 ng protein per well
[20] = biological target: Heska native Derf1 (Dermatophagoides farinae) (UniProt P16311); experiment: as above
[21] = biological target: Pichia-expressed recombinant Der f 1 protein PDerf1303b (Dermatophagoides farinae) (UniProt P16311); experiment: as above

Work on “anti-Der f 1 protein monoclonal antibody 6A8” yielded an OD [1] of 1770 OD x1000, an OD [2] of 2140 OD x1000 and an OD [3] of 2160 OD x1000. For the same substance, the OD [4] was 1980 OD x1000, the OD [5] was 2180 OD x1000 and the OD [6] was 2150 OD x1000. The OD [7] was 268 OD x1000, the OD [8] was 2040 OD x1000 and the OD [9] was 916 OD x1000. It also gave an OD [10] of 503 OD x1000, an OD [11] of 2220 OD x1000 and an OD [12] of 1540 OD x1000. The OD [13] was 136 OD x1000, the OD [14] was 1740 OD x1000 and the OD [15] was 405 OD x1000. The OD [16] was 890 OD x1000, the OD [17] was 2200 OD x1000 and the OD [18] was 1960 OD x1000. For the same substance, the OD [19] was 1370 OD x1000, the OD [20] was 2290 OD x1000 and the OD [21] was 2090 OD x1000.
